Measurements reported in patent US9993440.

Experiments:
[1] = test system: T1, MMP-cleavable crosslinker KLGPAK (Lys-Leu-Gly-Pro-Ala-Lys)
T1 sequence: KLGPAK

[2] = test system: T2, plasmin-cleavable crosslinker KNRVK (bisacryloylated Lys-Asn-Arg-Val-Lys)
T2 sequence: KNRVK

Chain of plasmin (P00747 20-580): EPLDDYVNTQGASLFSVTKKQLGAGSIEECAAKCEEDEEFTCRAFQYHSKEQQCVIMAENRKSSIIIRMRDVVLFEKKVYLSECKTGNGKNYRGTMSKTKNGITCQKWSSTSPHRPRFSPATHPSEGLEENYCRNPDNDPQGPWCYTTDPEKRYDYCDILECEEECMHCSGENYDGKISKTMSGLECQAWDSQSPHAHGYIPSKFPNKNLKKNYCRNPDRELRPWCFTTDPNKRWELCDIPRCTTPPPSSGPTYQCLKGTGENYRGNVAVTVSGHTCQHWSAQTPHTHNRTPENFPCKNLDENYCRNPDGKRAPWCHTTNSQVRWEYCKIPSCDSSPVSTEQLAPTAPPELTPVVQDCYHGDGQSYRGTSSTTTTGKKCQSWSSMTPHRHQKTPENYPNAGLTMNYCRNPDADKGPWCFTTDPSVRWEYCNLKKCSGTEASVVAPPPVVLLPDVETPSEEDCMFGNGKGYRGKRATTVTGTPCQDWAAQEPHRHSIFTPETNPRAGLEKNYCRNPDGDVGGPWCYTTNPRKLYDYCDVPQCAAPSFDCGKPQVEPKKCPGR
Chain of plasmin (P00747 581-810): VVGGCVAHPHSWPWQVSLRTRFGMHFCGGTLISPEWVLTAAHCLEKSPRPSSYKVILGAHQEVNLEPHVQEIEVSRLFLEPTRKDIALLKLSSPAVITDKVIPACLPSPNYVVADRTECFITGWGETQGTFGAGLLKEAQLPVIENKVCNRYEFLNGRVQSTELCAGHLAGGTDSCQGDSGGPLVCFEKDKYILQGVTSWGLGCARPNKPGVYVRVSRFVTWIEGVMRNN

Row | Substance | release of BSA from nBSALGPA (SDS-PAGE, 30 min) [1] | VEGF released from nVEGF formed with 100% degradable crosslinker (ELISA, with plasmin) [2] | release of BSA from nBSANRV (SDS-PAGE, 30 min) [2] | release percentage of VEGF from de-nVEGFplasmin (100%-peptide crosslinker) (ELISA) [2] | release of VEGF from de-nVEGFplasmin (100%-peptide crosslinker) (ELISA) [2] | degradation of the polymer shells of nBSALGPA (DLS) [1]
1 | plasmin | plasmin is incapable of triggering release of BSA from MMP-specific nBSALGPA | released 95% of the VEGF used to form the nanocapsules | does exhibit a well-defined band (line 3) similar to that of native BSA upon exposure to plasmin | plasmin-incubated nVEGF showed about 60% release percentage |  | 
2 | trypsin |  |  |  |  | only extended periods of incubation with trypsin and collagenase IV had releases of VEGF | 
3 | collagenase (a bacterial equivalent of MMP) |  |  | nBSANRV without exposure to plasmin (line 2) or after exposure to collagenase (line 4) does not show any well-defined band |  |  | Exposing nBSALGPA to collagenase results in specific degradation of the polymer shells
